We go through one substance from publication PMC1318456.

For this test, the target named is Non-muscle actin (99% pure; 80% β-actin, 20% γ-actin), polymerized (UniProt P60709). The test can be described thus: co-sedimentation; actin filaments first bundled with α-actinin for 30 min at room temperature, CRP1 then added for a further 30 min, 10,000 x g; supernatant and pellet on gel, Gelcode Blue.

With “α-actinin purified from chicken gizzard (from UniProt P05094 1-893) (natural protein)”, the fold increase of α-actinin in the actin bundles with CRP1 added, against without CRP1 amounted to 2 fold.
